The data set concerns the molecule itself. The experiment in a line: AUC; sedimentation velocity; AFL 0.04-0.30 mg/ml in 20 mM Tris/HCl, 300 mM NaCl, pH 7.4; 20 °C, 42,000 rpm; continuous c(s) analysis in Sedfit.

B1: Aspergillus fumigatus lectin (AFL), recombinant (natural protein)
chain: MSTPGAQQVLFRTGIAAVNSTNHLRVYFQDVYGSIRESLYEGSWANGTEKNVIGNAKLGSPVAATSKELKHIRVYTLTEGNTLQEFAYDSGTGWYNGGLGGAKFQVAPYSCIAAVFLAGTDALQLRIYAQKPDNTIQEYMWNGDGWKEGTNLGGALPGTGIGATSFRYTDYNGPSIRIWFQTDDLKLVQRAYDPHKGWYPDLVTIFDRAPPRTAIAATSFGAGNSSIYMRIYFVNSDNTIWQVCWDHGKGYHDKGTITPVIQGSEVAIISWGSFANNGPDLRLYFQNGTYISAVSEWVWNRAHGSQLGRSALPPA
notes: Fucose-specific lectin AFL of Aspergillus fumigatus, gene AFUA_5G14740 (Af293 genome); cloned from a commercial cDNA library of A. fumigatus ATCC 13073 with primers from the start ATG to an in-frame stop codon; 314 aa long without the initial Met; Cloned NdeI/HindIII into pET29a with its own stop codon; no tag is mentioned; also called rAFL; AfuFleA
Broadly, the stoichiometry N is a count of units in the complex or per binding partner. B1: the “stoichiometry N” value was 2.

The values above are taken from paper PMC3858362, “A Soluble Fucose-Specific Lectin from Aspergillus fumigatus Conidia - Structure, Specificity and Possible Role in Fungal Pathogenicity” (PLoS ONE, 2013).
